In patent US20250312499A1, “KISSPEPTIN RECEPTOR (KISS1R) TARGETED THERAPEUTICS AND USES THEREOF” (priority 2024, published 2025):
Numbered stars: 1 amine (or outer) side, 2 acyl side, 3 side chain; on linkers, the order of the positions; unused ones are H or OH. Square brackets hold non-standard residues; d marks the D form. * marks the point of attachment. X2 = 4‑amino‑1‑((3-fluoro-4-methylbenzyl)glycyl)piperidine‑4‑carboxylic acid, Cc1ccc(CN(CC(=O)N2CCC(N[*:1])(C(=O)[*:2])CC2)[*:3])cc1F; DOTA = O=C(O)CN1CCN(CC(=O)O)CCN(CC(=O)*)CCN(CC(=O)O)CC1; Api(1-amidino) = N=C(N)N1CCC(N)(C(=O)O)CC1; Phe(4-CN) = N#Cc1ccc(C[C@H](N)C(=O)O)cc1; HO(CH2CH2O)2CH2CH2CO = O=C(CCOCCOCCO)*; 2Nal = N[C@@H](Cc1ccc2ccccc2c1)C(=O)O; d2Nal = N[C@H](Cc1ccc2ccccc2c1)C(=O)O; 4Pal = N[C@@H](Cc1ccncc1)C(=O)O; d4Pal = N[C@H](Cc1ccncc1)C(=O)O; 4Amb = NCc1ccc(C(=O)O)cc1; APM = not defined here; Ahx = NCCCCCC(=O)O; azaGly = NNC(=O)O

target: human kisspeptin receptor (KISS1R) (human), Q969F8; assay: radioligand competition, hKISS1R membranes; legend: A is <10 nM
Sequence (Q969F8 whole entry): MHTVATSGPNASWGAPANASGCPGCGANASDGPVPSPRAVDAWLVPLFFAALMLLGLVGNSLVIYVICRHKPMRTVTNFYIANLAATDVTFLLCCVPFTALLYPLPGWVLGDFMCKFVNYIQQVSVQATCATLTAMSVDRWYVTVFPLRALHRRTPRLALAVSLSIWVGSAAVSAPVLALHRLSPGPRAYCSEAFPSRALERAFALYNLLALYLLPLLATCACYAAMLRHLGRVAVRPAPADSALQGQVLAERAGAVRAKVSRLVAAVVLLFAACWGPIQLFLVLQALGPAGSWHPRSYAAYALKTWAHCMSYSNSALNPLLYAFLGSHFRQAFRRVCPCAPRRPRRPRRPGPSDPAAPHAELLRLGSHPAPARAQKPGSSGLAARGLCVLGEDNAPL

Row | Ki | Binder
1 | < 10 nM | {HO(CH2CH2O)2CH2CH2CO}-K(DOTA)NTF[azaGly]L[X2][4Pal]-NH2 (SMILES Cc1ccc(CNCC(=O)N2CCC(NC(=O)[C@H](CC(C)C)NC(=O)NNC(=O)[C@H](Cc3ccccc3)NC(=O)[C@@H](NC(=O)[C@H](CC(N)=O)NC(=O)[C@H](CCCCNC(=O)CN3CCN(CC(=O)O)CCN(CC(=O)O)CCN(CC(=O)O)CC3)NC(=O)CCOCCOCCO)[C@@H](C)O)(C(=O)N[C@@H](Cc3ccncc3)C(N)=O)CC2)cc1F) [Compound 253]
2 | < 10 nM | {DOTA-4Amb}-[dE]NTF[azaGly]L[X2][Phe(4-CN)]-NH2 (SMILES Cc1ccc(CNCC(=O)N2CCC(NC(=O)[C@H](CC(C)C)NC(=O)NNC(=O)[C@H](Cc3ccccc3)NC(=O)[C@@H](NC(=O)[C@H](CC(N)=O)NC(=O)[C@@H](CCC(=O)O)NC(=O)c3ccc(CNC(=O)CN4CCN(CC(=O)O)CCN(CC(=O)O)CCN(CC(=O)O)CC4)cc3)[C@@H](C)O)(C(=O)N[C@@H](Cc3ccc(C#N)cc3)C(N)=O)CC2)cc1F) [Compound 242]
3 | < 10 nM | {DOTA-Ahx}-[dY][dW]NTF[azaGly]L[Apc(OMe)][4Pal]-NH2 [Compound 293]
4 | < 10 nM | {3‑(2-(2-methoxyethoxy)ethoxy)propanoyl}-K(DOTA)NTF[azaGly]L[X2][4Pal]-NH2 [Compound 255]
5 | < 10 nM | {DOTA-Ahx}-[dY][dW]NTF[azaGly]L[X2]W-NH2 (SMILES Cc1ccc(CNCC(=O)N2CCC(NC(=O)[C@H](CC(C)C)NC(=O)NNC(=O)[C@H](Cc3ccccc3)NC(=O)[C@@H](NC(=O)[C@H](CC(N)=O)NC(=O)[C@@H](Cc3c[nH]c4ccccc34)NC(=O)[C@@H](Cc3ccc(O)cc3)NC(=O)CCCCCNC(=O)CN3CCN(CC(=O)O)CCN(CC(=O)O)CCN(CC(=O)O)CC3)[C@@H](C)O)(C(=O)N[C@@H](Cc3c[nH]c4ccccc34)C(N)=O)CC2)cc1F) [Compound 1]
6 | < 10 nM | {1‑hydroxy‑3,6,9,12,15,18,21,24‑octaoxaheptacosan‑27‑oyl}-K(DOTA)NTF[azaGly]L[X2][4Pal]-NH2 [Compound 256]
7 | < 10 nM | {DOTA-Ahx}-FGL[X2]Y-NH2 (SMILES Cc1ccc(CNCC(=O)N2CCC(NC(=O)[C@H](CC(C)C)NC(=O)CNC(=O)[C@H](Cc3ccccc3)NC(=O)CCCCCNC(=O)CN3CCN(CC(=O)O)CCN(CC(=O)O)CCN(CC(=O)O)CC3)(C(=O)N[C@@H](Cc3ccc(O)cc3)C(N)=O)CC2)cc1F) [Compound 11]
8 | < 10 nM | {DOTA-APM}-NTF[azaGly]L[X2]Y-NH2 (reading uncertain) [Compound 249]
9 | < 10 nM | {DOTA-Ahx}-[dW]NTF[azaGly]L[X2][4Pal]-NH2 (SMILES Cc1ccc(CNCC(=O)N2CCC(NC(=O)[C@H](CC(C)C)NC(=O)NNC(=O)[C@H](Cc3ccccc3)NC(=O)[C@@H](NC(=O)[C@H](CC(N)=O)NC(=O)[C@@H](Cc3c[nH]c4ccccc34)NC(=O)CCCCCNC(=O)CN3CCN(CC(=O)O)CCN(CC(=O)O)CCN(CC(=O)O)CC3)[C@@H](C)O)(C(=O)N[C@@H](Cc3ccncc3)C(N)=O)CC2)cc1F) [Compound 290]
10 | < 10 nM | {DOTA-Ahx}-[dY]NTF[azaGly]L[X2][4Pal]-NH2 (SMILES Cc1ccc(CNCC(=O)N2CCC(NC(=O)[C@H](CC(C)C)NC(=O)NNC(=O)[C@H](Cc3ccccc3)NC(=O)[C@@H](NC(=O)[C@H](CC(N)=O)NC(=O)[C@@H](Cc3ccc(O)cc3)NC(=O)CCCCCNC(=O)CN3CCN(CC(=O)O)CCN(CC(=O)O)CCN(CC(=O)O)CC3)[C@@H](C)O)(C(=O)N[C@@H](Cc3ccncc3)C(N)=O)CC2)cc1F) [Compound 291]
11 | < 10 nM | {DOTA-4Amb}-NTF[azaGly]L[Api(1-amidino)][4Pal]-NH2 (SMILES CC(C)C[C@H](NC(=O)NNC(=O)[C@H](Cc1ccccc1)NC(=O)[C@@H](NC(=O)[C@H](CC(N)=O)NC(=O)c1ccc(CNC(=O)CN2CCN(CC(=O)O)CCN(CC(=O)O)CCN(CC(=O)O)CC2)cc1)[C@@H](C)O)C(=O)NC1(C(=O)N[C@@H](Cc2ccncc2)C(N)=O)CCN(C(=N)N)CC1) [Compound 272]
12 | < 10 nM | {DOTA-4Amb}-ENTF[azaGly]L[X2][Phe(4-CN)]-NH2 (SMILES Cc1ccc(CNCC(=O)N2CCC(NC(=O)[C@H](CC(C)C)NC(=O)NNC(=O)[C@H](Cc3ccccc3)NC(=O)[C@@H](NC(=O)[C@H](CC(N)=O)NC(=O)[C@H](CCC(=O)O)NC(=O)c3ccc(CNC(=O)CN4CCN(CC(=O)O)CCN(CC(=O)O)CCN(CC(=O)O)CC4)cc3)[C@@H](C)O)(C(=O)N[C@@H](Cc3ccc(C#N)cc3)C(N)=O)CC2)cc1F) [Compound 241]
13 | < 10 nM | {DOTA-APM}-TF[azaGly]L[X2]Y-NH2 (reading uncertain) [Compound 250]
14 | < 10 nM | {DOTA-Ahx}-ENTF[azaGly]L[X2]W-NH2 (SMILES Cc1ccc(CNCC(=O)N2CCC(NC(=O)[C@H](CC(C)C)NC(=O)NNC(=O)[C@H](Cc3ccccc3)NC(=O)[C@@H](NC(=O)[C@H](CC(N)=O)NC(=O)[C@H](CCC(=O)O)NC(=O)CCCCCNC(=O)CN3CCN(CC(=O)O)CCN(CC(=O)O)CCN(CC(=O)O)CC3)[C@@H](C)O)(C(=O)N[C@@H](Cc3c[nH]c4ccccc34)C(N)=O)CC2)cc1F) [Compound 238]
15 | < 10 nM | {DOTA-APM}-F[azaGly]L[X2][Phe(4-CN)]-NH2 (reading uncertain) [Compound 244]
16 | < 10 nM | {DOTA-APM}-F[azaGly]L[X2]Y-NH2 (reading uncertain) [Compound 247]
17 | < 10 nM | {DOTA-Ahx}-FGL[X2]W-NH2 (SMILES Cc1ccc(CNCC(=O)N2CCC(NC(=O)[C@H](CC(C)C)NC(=O)CNC(=O)[C@H](Cc3ccccc3)NC(=O)CCCCCNC(=O)CN3CCN(CC(=O)O)CCN(CC(=O)O)CCN(CC(=O)O)CC3)(C(=O)N[C@@H](Cc3c[nH]c4ccccc34)C(N)=O)CC2)cc1F) [Compound 10]
18 | < 10 nM | {DOTA-4Amb}-NTFGL[X2][Phe(4-CN)]-NH2 (not fully specified) [Compound 240]
19 | < 10 nM | {DOTA}-[dY][2Nal]NTF[azaGly]L[Api(1-amidino)]W-NH2 (SMILES CC(C)C[C@H](NC(=O)NNC(=O)[C@H](Cc1ccccc1)NC(=O)[C@@H](NC(=O)[C@H](CC(N)=O)NC(=O)[C@H](Cc1ccc2ccccc2c1)NC(=O)[C@@H](Cc1ccc(O)cc1)NC(=O)CN1CCN(CC(=O)O)CCN(CC(=O)O)CCN(CC(=O)O)CC1)[C@@H](C)O)C(=O)NC1(C(=O)N[C@@H](Cc2c[nH]c3ccccc23)C(N)=O)CCN(C(=N)N)CC1) [Compound 266]
20 | < 10 nM | {DOTA-Ahx-4Amb}-[dY][dW]NTF[azaGly]L[Api(1-amidino)]W-NH2 (SMILES CC(C)C[C@H](NC(=O)NNC(=O)[C@H](Cc1ccccc1)NC(=O)[C@@H](NC(=O)[C@H](CC(N)=O)NC(=O)[C@@H](Cc1c[nH]c2ccccc12)NC(=O)[C@@H](Cc1ccc(O)cc1)NC(=O)c1ccc(CNC(=O)CCCCCNC(=O)CN2CCN(CC(=O)O)CCN(CC(=O)O)CCN(CC(=O)O)CC2)cc1)[C@@H](C)O)C(=O)NC1(C(=O)N[C@@H](Cc2c[nH]c3ccccc23)C(N)=O)CCN(C(=N)N)CC1) [Compound 270]
21 | < 10 nM | {DOTA-Ahx}-[d2Nal]NTF[azaGly]L[X2][4Pal]-NH2 (SMILES Cc1ccc(CNCC(=O)N2CCC(NC(=O)[C@H](CC(C)C)NC(=O)NNC(=O)[C@H](Cc3ccccc3)NC(=O)[C@@H](NC(=O)[C@H](CC(N)=O)NC(=O)[C@@H](Cc3ccc4ccccc4c3)NC(=O)CCCCCNC(=O)CN3CCN(CC(=O)O)CCN(CC(=O)O)CCN(CC(=O)O)CC3)[C@@H](C)O)(C(=O)N[C@@H](Cc3ccncc3)C(N)=O)CC2)cc1F) [Compound 292]
22 | < 10 nM | {3‑(2-(2-methoxyethoxy)ethoxy)propanoyl}-K(DOTA)NTF[azaGly]L[Api(1-amidino)]W-NH2 [Compound 264]
23 | < 10 nM | {DOTA-APM}-F[azaGly]L[X2]F-NH2 (reading uncertain) [Compound 245]
24 | < 10 nM | {DOTA-Ahx}-[d4Pal]NTF[azaGly]L[X2][4Pal]-NH2 (SMILES Cc1ccc(CNCC(=O)N2CCC(NC(=O)[C@H](CC(C)C)NC(=O)NNC(=O)[C@H](Cc3ccccc3)NC(=O)[C@@H](NC(=O)[C@H](CC(N)=O)NC(=O)[C@@H](Cc3ccncc3)NC(=O)CCCCCNC(=O)CN3CCN(CC(=O)O)CCN(CC(=O)O)CCN(CC(=O)O)CC3)[C@@H](C)O)(C(=O)N[C@@H](Cc3ccncc3)C(N)=O)CC2)cc1F) [Compound 295]
25 | < 10 nM | {HO(CH2CH2O)2CH2CH2CO}-[dK](DOTA)NTF[azaGly]L[X2][4Pal]-NH2 (SMILES Cc1ccc(CNCC(=O)N2CCC(NC(=O)[C@H](CC(C)C)NC(=O)NNC(=O)[C@H](Cc3ccccc3)NC(=O)[C@@H](NC(=O)[C@H](CC(N)=O)NC(=O)[C@@H](CCCCNC(=O)CN3CCN(CC(=O)O)CCN(CC(=O)O)CCN(CC(=O)O)CC3)NC(=O)CCOCCOCCO)[C@@H](C)O)(C(=O)N[C@@H](Cc3ccncc3)C(N)=O)CC2)cc1F) [Compound 254]
